PMC3790753

Biological target: stratifin (14-3-3 σ) (UniProt P31947)
Assay: anti-myc IP, anti-stratifin blot
Details: reference: wild-type Pkp-3-myc; sites S285

- binding against the reference: lost
Substance: plakophilin-3 (from UniProt Q9Y446) Pkp-3-myc S285A
